Experimental data: patent publication US20200291096A1, “BICYCLIC PEPTIDE LIGAND STING CONJUGATES AND USES THEREOF” (priority 2017, published 2020)
Starred links: 1 amine or outer side, 2 acyl side, 3 side chain; linkers in the order of their positions; H or OH if unused. Positions of bridges follow the written chain, without caps; N, C: chain ends. Non-standard residues stand in square brackets, D forms with d. Residues, ends and D or L forms follow the SMILES beside them. *: point of attachment. X1 = CC(C)[C@H](NC(=O)Cn1cc(CCC(=O)*)nn1)C(=O)N[C@@H](CCCNC(N)=O)C(=O)Nc1ccc(COC(=O)N(C)CCN(C)C(=O)O[C@@H]2[C@@H]3OP(=O)(O)OC[C@H]4O[C@@H](n5cnc6c(N)ncnc65)[C@H](O)[C@@H]4OP(=O)(O)OC[C@H]3O[C@H]2n2cnc3c(=O)[nH]c(N)nc32)cc1; X4 = CC(C)[C@H](NC(=O)Cn1cc(CCC(=O)*)nn1)C(=O)N[C@@H](CCCNC(N)=O)C(=O)Nc1ccc(COC(=O)NCCNC(=O)O[C@@H]2[C@@H]3OP(=O)(O)OC[C@H]4O[C@@H](n5cnc6c(N)ncnc65)[C@H](O)[C@@H]4OP(=O)(O)OC[C@H]3O[C@H]2n2cnc3c(=O)[nH]c(N)nc32)cc1; X5 = Nc1nc2c(ncn2[C@@H]2O[C@@H]3COP(=O)(O)O[C@H]4[C@@H](O)[C@H](n5cnc6c(N)ncnc65)O[C@@H]4COP(=O)(O)O[C@H]3[C@H]2OC(=O)NCCSSCCCC(=O)*)c(=O)[nH]1; X2 = Nc1nc2c(ncn2[C@@H]2O[C@@H]3COP(=O)(O)O[C@H]4[C@@H](O)[C@H](n5cnc6c(N)ncnc65)O[C@@H]4COP(=O)(O)O[C@H]3[C@H]2OC(=O)*)c(=O)[nH]1; X6 = Nc1ncnc2c1ncn2[C@@H]1O[C@@H]2COP(=O)(S)O[C@H]3[C@@H](OC(=O)*)[C@H](n4cnc5c(N)ncnc54)O[C@@H]3COP(=O)(S)O[C@H]2[C@H]1F; 1Nal = N[C@@H](Cc1cccc2ccccc12)C(=O)O; TBMB = c1c(C[*:1])cc(C[*:3])cc1C[*:2]; X3 = O=C(CCc1cn(CCCN[*:1])nn1)[*:2]; Tle = CC(C)(C)[C@H](N)C(=O)O; βAla = NCCC(=O)O; Sar = CNCC(=O)O

Experiments:
Plasma stability (cyno) = format: in vitro ADME; conditions: cynomolgus monkey, pH 7.4, 37° C., read-out: T1/2 (cyno)
Description: (§1) The pooled frozen mouse, rat, monkey or human plasma is thawed in a water bath at 37° C. prior to experiment. Plasma is centrifuged at 4000 rpm for 5 min and the clots are removed if any. The pH is adjusted to 7.4±0.1 if required. 5 mM intermediate solutions of test compounds are prepared with DMSO. 1 mM intermediate solution of positive control Propantheline is prepared by diluting 5 μL of the stock solution with 45 μL ultra pure water. 1 mM intermediate solution of positive control Enalaprit is prepared by diluting 5 μL of the stock solution with 45 μL DMSO. 100 μM dosing solution is prepared by diluting 20 μL of the intermediate solution (1 mM) with 180 μL DMSO. For positive controls, 100 μM intermediate solution is prepared by diluting 20 μL of the stock solution with 180 μL 45% MeOH/H2O. […] 196 μL of blank plasma is spiked with 4 μL of dosing solution (100 μM) to achieve 2 μM of the final concentration in duplicate and samples are incubated at 37° C. in a water bath. At each time point (0, 1, 2, 4, 6 and 24 hr), 800 μL of stop solution (200 ng/mL tolbutamide, 200 ng/ML Labetalol in 50% MeOH/ACN) was added to precipitate protein and mixed thoroughly. Sample plates are centrifuged at 4,000 rpm for 10 min. An aliquot of supernatant (150 μL) is transferred from each well before submitting to LC-MS/MS analysis.
(§2) The percentage of test compound remaining at the individual time points relative to the 0 hour sample is calculated using following equation: Percent Remaining=100×(PAR at appointed incubation time/PAR at To time) where PAR is the peak area ratio of analyte versus internal standard (IS).

in vitro [1] = conditions: human, plasma, pH 7.4
Description: as §1, §2

in vitro [2] = conditions: rat, plasma, pH 7.4
Description: as §1, §2

in vitro [3] = conditions: mouse, plasma, pH 7.4
Description: as §1, §2

in vitro [4] = conditions: male, CD-1, mouse, whole blood
Description: CD-1 mouse blood (n >2,male, fasted overnight) is collected from animals housed at an internal facility. (EDTA-K2 is used as anticoagulant)
The test compounds and positive control stock solutions are prepared to 10 mM in DMSO or ultrapure water. […] The dosing solutions of test compounds and controls are prepared by diluting the stock solution with 45% MeOH/H2O to achieve 100 uM. Test compound solutions (final incubation concentration=2 μM) are incubated with blood (final DMSO concentration≤1%) at six different time points (0, 1, 2, 4, 6 and 24 hours) in duplicate (n=2). The reaction is terminated by adding 100 uL ultra-pure water, mixing well, then adding 800 uL of 100% methanol containing 200 ng/mL tolbutamide and 200 ng/mL labetalol as internal standards. Samples are then vortexed and centrifuged at 3200×g for 20 minutes. Following centrifugation, the concentration of test compound in the supernatant is determined semi-quantitatively by LC-MS/MS. The percentage of test compound remaining at the individual time points relative to the 0 hour sample is then reported. The percent remaining of test compound after incubation in blood is calculated using following equation: Percent Remaining=100×(PAR at appointed incubation time/PAR at To time) where PAR is the peak area ratio of analyte versus internal standard (IS).

[5] = 3 mg/kg IV, male CD-1 mice, plasma (FIG. 1)
Description: Male CD-1 mice were dosed with 3 mg/kg of Bicycle Conjugate formulated in 25 mM Histidine HCl, 10% sucrose pH 7 via tail vein injection. Serial bleeding (about 80 μL blood/time point) was performed via submadibular or saphenous vein at each time point. All blood samples were immediately transferred into prechilled microcentrifuge tubes containing 2 μL K2-EDTA (0.5M) as anti-coagulant and placed on wet ice. Blood samples were immediately processed for plasma by centrifugation at approximately +4° C., 3000 g. The precipitant including internal standard (350 uL) was immediately added into the 35 uL plasma sample, mixed well and centrifuged at 3220 g, +4° C. for 15 minutes. The supernatant was transferred into pre-labelled polypropylene microcentrifuge tubes, and then quick-frozen over dry ice. The samples were stored at −70° C. or below as needed until analysis. Supernatant samples were mixed with 50 uL water, vortexed well and centrifuged at 3220 g, +4° C. for 15 minutes. A sample of the supernatant was injected for LC-MS/MS analysis using an Acquity UPLC with AB Sciex 6500+Triple Quad MS in positive ion mode to determine the concentrations of Bicycle conjugate and released payload. Plasma concentration versus time data were analyzed by non-compartmental approaches using the Phoenix WinNonlin 6.3 software program. […]

| SMILES | half-life at 2 μM (Plasma stability (cyno)) | half-life at 2 μM (in vitro [1]) | half-life at 2 μM (in vitro [2]) | half-life at 2 μM (in vitro [3]) | stability in mouse blood | half-life at 2 μM (in vitro [4]) | systemic elimination [5] |
| --- | --- | --- | --- | --- | --- | --- | --- |
| C[C@H](NC(=O)CN(C)C(=O)CN(C)C(=O)CN(C)C(=O)CN(C)C(=O)CN(C)C(=O)CN(C)C(=O)CN(C)C(=O)CN(C)C(=O)CN(C)C(=O)CN(C)C(=O)CCNC(=O)CCc1cn(CCCNC(=O)O[C@@H]2[C@@H]3OP(=O)(S)OC[C@H]4O[C@@H](n5cnc6c(N)ncnc65)[C@H](F)[C@@H]4OP(=O)(S)OC[C@H]3O[C@H]2n2cnc3c(N)ncnc32)nn1)C(=O)N[C@H]1CSCc2cc3cc(c2)CSC[C@H](NC(=O)[C@@H](C)NC(=O)[C@H](Cc2cccc4ccccc24)NC(=O)[C@H](CCC(=O)O)NC(=O)[C@H](CC(N)=O)NC(=O)[C@@H](C)NC1=O)C(=O)N[C@@H](CCC(=O)O)C(=O)N[C@@H](CC(=O)O)C(=O)N[C@@H](Cc1ccccc1)C(=O)N[C@@H](Cc1ccc(O)cc1)C(=O)N[C@@H](CC(=O)O)C(=O)N[C@@H](C(C)(C)C)C(=O)N[C@H](C(N)=O)CSC3 (stereo partly shown) [Conjugate 1 of Example 7.4] (X6-[X3][βAla][Sar][Sar][Sar][Sar][Sar][Sar][Sar][Sar][Sar][Sar]AC[dA]NE[1Nal][dA]CEDFYD[Tle]C-NH2; linker 14-20-27 via TBMB) | > 24 h | > 24 h | > 24 h | 6 to 24 h | – | – | – |
| C[C@H](NC(=O)CN(C)C(=O)CN(C)C(=O)CN(C)C(=O)CN(C)C(=O)CN(C)C(=O)CN(C)C(=O)CN(C)C(=O)CN(C)C(=O)CN(C)C(=O)CN(C)C(=O)CCNC(=O)CCCSSCCNC(=O)O[C@@H]1[C@@H]2OP(=O)(O)OC[C@H]3O[C@@H](n4cnc5c(N)ncnc54)[C@H](O)[C@@H]3OP(=O)(O)OC[C@H]2O[C@H]1n1cnc2c(=O)[nH]c(N)nc21)C(=O)N[C@H]1CSCc2cc3cc(c2)CSC[C@H](NC(=O)[C@@H](C)NC(=O)[C@H](Cc2cccc4ccccc24)NC(=O)[C@H](CCC(=O)O)NC(=O)[C@H](CC(N)=O)NC(=O)[C@@H](C)NC1=O)C(=O)N[C@@H](CCC(=O)O)C(=O)N[C@@H](CC(=O)O)C(=O)N[C@@H](Cc1ccccc1)C(=O)N[C@@H](Cc1ccc(O)cc1)C(=O)N[C@@H](CC(=O)O)C(=O)N[C@@H](C(C)(C)C)C(=O)N[C@H](C(N)=O)CSC3 [I-64] ({X5-βAla}-[Sar][Sar][Sar][Sar][Sar][Sar][Sar][Sar][Sar][Sar]AC[dA]NE[1Nal][dA]CEDFYD[Tle]C-NH2; linker 12-18-25 via TBMB) | < 2 h | < 2 h | < 2 h | < 2 h | – | – | – |
| CC(C)[C@H](NC(=O)Cn1cc(CCC(=O)NCCC(=O)N(C)CC(=O)N(C)CC(=O)N(C)CC(=O)N(C)CC(=O)N(C)CC(=O)N(C)CC(=O)N(C)CC(=O)N(C)CC(=O)N(C)CC(=O)N(C)CC(=O)N[C@@H](C)C(=O)N[C@H]2CSCc3cc4cc(c3)CSC[C@H](NC(=O)[C@@H](C)NC(=O)[C@H](Cc3cccc5ccccc35)NC(=O)[C@H](CCC(=O)O)NC(=O)[C@H](CC(N)=O)NC(=O)[C@@H](C)NC2=O)C(=O)N[C@@H](CCC(=O)O)C(=O)N[C@@H](CC(=O)O)C(=O)N[C@@H](Cc2ccccc2)C(=O)N[C@@H](Cc2ccc(O)cc2)C(=O)N[C@@H](CC(=O)O)C(=O)N[C@@H](C(C)(C)C)C(=O)N[C@H](C(N)=O)CSC4)nn1)C(=O)N[C@@H](CCCNC(N)=O)C(=O)Nc1ccc(COC(=O)NCCNC(=O)O[C@@H]2[C@@H]3OP(=O)(O)OC[C@H]4O[C@@H](n5cnc6c(N)ncnc65)[C@H](O)[C@@H]4OP(=O)(O)OC[C@H]3O[C@H]2n2cnc3c(=O)[nH]c(N)nc32)cc1 [I-65] ({X4-βAla}-[Sar][Sar][Sar][Sar][Sar][Sar][Sar][Sar][Sar][Sar]AC[dA]NE[1Nal][dA]CEDFYD[Tle]C-NH2; linker 12-18-25 via TBMB) | > 24 h | > 24 h | > 24 h | 6 to 24 h | – | – | – |
| C[C@H](NC(=O)CN(C)C(=O)CN(C)C(=O)CN(C)C(=O)CN(C)C(=O)CN(C)C(=O)CN(C)C(=O)CN(C)C(=O)CN(C)C(=O)CN(C)C(=O)CN(C)C(=O)CCNC(=O)CCc1cn(CCCNC(=O)O[C@@H]2[C@@H]3OP(=O)(O)OC[C@H]4O[C@@H](n5cnc6c(N)ncnc65)[C@H](O)[C@@H]4OP(=O)(O)OC[C@H]3O[C@H]2n2cnc3c(=O)[nH]c(N)nc32)nn1)C(=O)N[C@H]1CSCc2cc3cc(c2)CSC[C@H](NC(=O)[C@@H](C)NC(=O)[C@H](Cc2cccc4ccccc24)NC(=O)[C@H](CCC(=O)O)NC(=O)[C@H](CC(N)=O)NC(=O)[C@@H](C)NC1=O)C(=O)N[C@@H](CCC(=O)O)C(=O)N[C@@H](CC(=O)O)C(=O)N[C@@H](Cc1ccccc1)C(=O)N[C@@H](Cc1ccc(O)cc1)C(=O)N[C@@H](CC(=O)O)C(=O)N[C@@H](C(C)(C)C)C(=O)N[C@H](C(N)=O)CSC3 [I-66] (X2-[X3][βAla][Sar][Sar][Sar][Sar][Sar][Sar][Sar][Sar][Sar][Sar]AC[dA]NE[1Nal][dA]CEDFYD[Tle]C-NH2; linker 14-20-27 via TBMB) | > 24 h | > 24 h | > 24 h | > 24 h | dramatic stability | 6 to 24 h | – |
| CC(C)[C@H](NC(=O)Cn1cc(CCC(=O)NCCC(=O)N(C)CC(=O)N(C)CC(=O)N(C)CC(=O)N(C)CC(=O)N(C)CC(=O)N(C)CC(=O)N(C)CC(=O)N(C)CC(=O)N(C)CC(=O)N(C)CC(=O)N[C@@H](C)C(=O)N[C@H]2CSCc3cc4cc(c3)CSC[C@H](NC(=O)[C@@H](C)NC(=O)[C@H](Cc3cccc5ccccc35)NC(=O)[C@H](CCC(=O)O)NC(=O)[C@H](CC(N)=O)NC(=O)[C@@H](C)NC2=O)C(=O)N[C@@H](CCC(=O)O)C(=O)N[C@@H](CC(=O)O)C(=O)N[C@@H](Cc2ccccc2)C(=O)N[C@@H](Cc2ccc(O)cc2)C(=O)N[C@@H](CC(=O)O)C(=O)N[C@@H](C(C)(C)C)C(=O)N[C@H](C(N)=O)CSC4)nn1)C(=O)N[C@@H](CCCNC(N)=O)C(=O)Nc1ccc(COC(=O)N(C)CCN(C)C(=O)O[C@@H]2[C@@H]3OP(=O)(O)OC[C@H]4O[C@@H](n5cnc6c(N)ncnc65)[C@H](O)[C@@H]4OP(=O)(O)OC[C@H]3O[C@H]2n2cnc3c(=O)[nH]c(N)nc32)cc1 [I-68] ({X1-βAla}-[Sar][Sar][Sar][Sar][Sar][Sar][Sar][Sar][Sar][Sar]AC[dA]NE[1Nal][dA]CEDFYD[Tle]C-NH2; linker 12-18-25 via TBMB) | > 24 h | > 24 h | > 24 h | 6 to 24 h | dramatic stability | 2 to 6 h | rapid systemic elimination |
